Source: US20070110757A1
Residue numbers refer to the chain shown, from its start.

B1: A17d4(1) monoclonal antibody (antibody, V domains shown)
VH: QVTLRESGPALVKPTQTLTLTCTFSGFSLSTAGMSVGWIRQPPGKALEWLADIWWDGKKSYNPSLKDRLTISKDTSKNQVVLKVTNMDPADTATYYCARDMIFNFYFDVWGQGTTVTVSS
VL: DIQMTQSPSTLSASVGDRVTITCLPSSRVGYMHWYQQKPGKAPKLLIYDTMYQSSGVPSRFSGSGSGTEFTLTISSLQPDDFATYYCFQGSGYPFTFGGGTKVEIK
B2: A4B4 monoclonal antibody (antibody, V domains shown)
VH: B1 VH with G57D, S60H
VL: B1 VL with L24S, P25A, M51F, Y52F, Q53L, S54D
B3: A4B4 Fab fragment (Fab, V domains shown)
VH: B1 VH with G57D, S60H
VL: B1 VL with L24S, P25A, M51F, Y52F, Q53L, S54D
B4: A13a11 Fab fragment (Fab, V domains shown)
VH: B1 VH with G57D, S60H, F105W
VL: B1 VL with L24S, M51Y, Y52R, Q53H
B5: A12a6 monoclonal antibody (antibody, V domains shown)
VH: B1 VH with S60D
VL: B1 VL with L24S, P25A, M51F, Y52K, Q53L
B6: A17d4(1) Fab fragment (Fab, V domains shown)
VH: B1 VH
VL: B1 VL
B7: P11d4 monoclonal antibody (antibody, V domains shown)
VH: B1 VH with A32P, S60H, F105W
VL: B1 VL with L24S, Y52R, Q53L, S54A
B8: A13c4 monoclonal antibody (antibody, V domains shown)
VH: B1 VH
VL: B1 VL with L24S, P25L
B9: P11d4 Fab fragment (Fab, V domains shown)
VH: B1 VH with A32P, S60H, F105W
VL: B1 VL with L24S, Y52R, Q53L, S54A
B10: A13c4 Fab fragment (Fab, V domains shown)
VH: B1 VH
VL: B1 VL with L24S, P25L
B11: A8c7 Fab fragment (Fab, V domains shown)
VH: B1 VH with G57D, F105W
VL: B1 VL with L24S, M51R
B12: A1e9 monoclonal antibody (antibody, V domains shown)
VH: B1 VH with S60H, F105W
VL: B1 VL with L24S, P25L, M51F, Y52K, Q53L
B13: A12a6 Fab fragment (Fab, V domains shown)
VH: B1 VH with S60D
VL: B1 VL with L24S, P25A, M51F, Y52K, Q53L
B14: P12f4 monoclonal antibody (antibody, V domains shown)
VH: B1 VH with A32P, S60H
VL: B1 VL with L24S, P25L, M51R, Y52G, Q53L, S54P
B15: P12f2 monoclonal antibody (antibody, V domains shown)
VH: B1 VH with A32P, G57D, S60H
VL: B1 VL with L24S, P25L, M51F, Q53L
B16: A1h5 Fab fragment (Fab, V domains shown)
VH: B1 VH with S60H, F105W
VL: B1 VL with L24S, P25L, R28S, M51F, Y52F, Q53H, S54R
B17: P12f4 Fab fragment (Fab, V domains shown)
VH: B1 VH with A32P, S60H
VL: B1 VL with L24S, P25L, M51R, Y52G, Q53L, S54P
B18: A1e9 Fab fragment (Fab, V domains shown)
VH: B1 VH with S60H, F105W
VL: B1 VL with L24S, P25L, M51F, Y52K, Q53L
B19: P12f2 Fab fragment (Fab, V domains shown)
VH: B1 VH with A32P, G57D, S60H
VL: B1 VL with L24S, P25L, M51F, Q53L
B20: A8c7 monoclonal antibody (antibody, V domains shown)
VH: B1 VH with G57D, F105W
VL: B1 VL with L24S, M51R

Target: RSV F protein on respiratory syncytial virus (RSV-Long strain) (respiratory syncytial virus (Long strain)) (UniProt P12568)
Assay: cell-based or functional assay

Chain of RSV F protein on respiratory syncytial virus (RSV-Long strain) (respiratory syncytial virus (Long strain)) (P12568 26-574): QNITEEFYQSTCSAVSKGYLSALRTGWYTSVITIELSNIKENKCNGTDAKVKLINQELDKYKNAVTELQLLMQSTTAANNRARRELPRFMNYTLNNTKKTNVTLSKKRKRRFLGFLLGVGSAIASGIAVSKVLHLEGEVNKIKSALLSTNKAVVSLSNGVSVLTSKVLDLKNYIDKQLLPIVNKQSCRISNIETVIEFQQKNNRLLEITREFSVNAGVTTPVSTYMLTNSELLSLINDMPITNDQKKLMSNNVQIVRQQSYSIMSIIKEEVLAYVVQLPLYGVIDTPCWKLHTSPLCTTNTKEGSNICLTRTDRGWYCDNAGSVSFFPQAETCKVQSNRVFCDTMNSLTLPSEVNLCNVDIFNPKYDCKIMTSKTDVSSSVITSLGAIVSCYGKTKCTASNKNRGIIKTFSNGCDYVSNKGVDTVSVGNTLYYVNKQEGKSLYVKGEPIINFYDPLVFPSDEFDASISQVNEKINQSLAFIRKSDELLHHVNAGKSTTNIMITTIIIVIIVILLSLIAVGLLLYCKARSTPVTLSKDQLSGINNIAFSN

Binder	Fold Difference (Control IC50)	Fold Difference (Curve IC50)	Mean IC50 (Control), RSV microneutralization	Mean IC50 (Curve), RSV microneutralization
B1	15 fold	13 fold	0.0354 µg/mL	0.0342 µg/mL
B2	35 fold	27 fold	0.0154 µg/mL	0.0171 µg/mL
B3	13 fold	11 fold	0.0411 µg/mL	0.0414 µg/mL
B4	5 fold	4 fold	0.102 µg/mL	0.12 µg/mL
B5	15 fold	13 fold	0.0354 µg/mL	0.0357 µg/mL
B6	31 fold	25 fold	0.0171 µg/mL	0.0179 µg/mL
B7	19 fold	21 fold	0.0289 µg/mL	0.0217 µg/mL
B8	14 fold	12 fold	0.0375 µg/mL	0.0376 µg/mL
B9			> 1 µg/mL	> 1 µg/mL
B10	21 fold	17 fold	0.0258 µg/mL	0.0264 µg/mL
B11	34 fold	3 fold	0.157 µg/mL	0.177 µg/mL
B12	8 fold	7 fold	0.0645 µg/mL	0.0625 µg/mL
B13	17 fold	16 fold	0.031 µg/mL	0.0287 µg/mL
B14	23 fold	19 fold	0.0235 µg/mL	0.0242 µg/mL
B15	24 fold	20 fold	0.0223 µg/mL	0.0231 µg/mL
B16	3 fold	2 fold	0.176 µg/mL	0.194 µg/mL
B17	15 fold	10 fold	0.0351 µg/mL	0.0464 µg/mL
B18	4 fold	3 fold	0.125 µg/mL	0.157 µg/mL
B19	16 fold	11 fold	0.0326 µg/mL	0.0407 µg/mL
B20	14 fold	13 fold	0.0383 µg/mL	0.0337 µg/mL
